The target of assay [1] is endoxylanase M1 from Trichoderma viride (family 11), Megazyme (Trichoderma viride). Nature of the assay: cell-based or functional assay.
Assay [2] addresses endoxylanase M4 from Aspergillus niger (family 11), Megazyme (Aspergillus niger). Nature of the assay: cell-based or functional assay.
Assay [3] addresses endoxylanase M6 from a rumen microorganism culture filtrate, Megazyme. Nature of the assay: cell-based or functional assay.
Assay [4] concerns the target endoxylanase from Bacillus subtilis (family 11), NV Puratos (Bacillus subtilis) (UniProt P18429). Description: cell-based or functional assay.
Assay [5] addresses mixture of ‘TAXI’-like endoxylanase inhibitors obtained after the affinity purification step of example 3, immobilised on NHS-activated Sepharose 4 Fast Flow. Description: affinity chromatography on immobilised ‘TAXI’-like endoxylanase inhibitors, activity by Xylazyme-AX method.

Sequence of endoxylanase M4 from Aspergillus niger (family 11), Megazyme (Aspergillus niger) (P55329 28-211): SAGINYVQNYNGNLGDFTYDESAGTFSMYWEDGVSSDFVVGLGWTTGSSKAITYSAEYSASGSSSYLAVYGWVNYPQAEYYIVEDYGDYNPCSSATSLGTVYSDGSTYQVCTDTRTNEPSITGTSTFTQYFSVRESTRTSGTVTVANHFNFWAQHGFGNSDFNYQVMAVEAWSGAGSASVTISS
Sequence of endoxylanase of A. niger, var. awamori (Quest International enzyme preparation) (P55328 28-211): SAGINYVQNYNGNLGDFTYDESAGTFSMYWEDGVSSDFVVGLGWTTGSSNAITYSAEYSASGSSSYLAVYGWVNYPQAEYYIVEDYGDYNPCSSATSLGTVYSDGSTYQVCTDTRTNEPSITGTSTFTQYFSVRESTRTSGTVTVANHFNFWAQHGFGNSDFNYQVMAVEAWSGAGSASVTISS

Turning to “HvXI (Hordeum vulgare L. endoxylanase inhibitor)”, the level of inhibitor that reduces the endoxylanase activity with 50% (Xylazyme-AX method) was 0.08 µg in assay [1], 0.13 µg in assay [2] and 0.27 µg in assay [4]. The maximum of inhibition of endoxylanase activity (Xylazyme-AX method) in assay [1] is over 95%; in assay [2], over 95%; in assay [3], 15%; in assay [4] it was 92%.

Consider “MBP (maltose binding protein)-TAXI fusion protein expressed by the pMAL-p2X-TAXI plasmid”, for which the endoxylanase inhibition activity of periplasmic protein fraction (Xylazyme-AX method) came to 99% in assay [2] and 88% in assay [4].

For the substance “TAXI II (Triticum aestivum L. endoxylanase inhibitor II)”, the maximum of inhibition of endoxylanase activity (Xylazyme-AX method) in assay [1] was over 90%; in assay [3] it was 8%; in assay [4] it was 77%. In addition, the quantity of inhibitor that reduces the endoxylanase activity with 50% (Xylazyme-AX method) is 0.07 µg in assay [1] and 0.28 µg in assay [4]. Besides, the maximum of inhibition as a function of inhibitor quantity in assay [4] is 80%.

In the case of “endoxylanase of A. niger, var. awamori (Quest International enzyme preparation)”, the endoxylanase activity retained on the affinity column in assay [5] worked out at 94%.

Turning to “recombinant TAXI protein expressed by the pHOS31-TAXI plasmid”, the endoxylanase inhibition activity of periplasmic protein fraction (Xylazyme-AX method) turned out to be 96% in assay [2] and 81% in assay [4].

(Values after patent US20030195151A1.)
